T1: CD22-His tag (CD22 extracellular domain; Acrobiosystems Inc.) (UniProt P20273 20-687, limits assumed)
T1 construct: extracellular domain; Bought reagent coated at 100 ng/well; also called CD22 peptide; not shown: His tag
T1 sequence (looked up): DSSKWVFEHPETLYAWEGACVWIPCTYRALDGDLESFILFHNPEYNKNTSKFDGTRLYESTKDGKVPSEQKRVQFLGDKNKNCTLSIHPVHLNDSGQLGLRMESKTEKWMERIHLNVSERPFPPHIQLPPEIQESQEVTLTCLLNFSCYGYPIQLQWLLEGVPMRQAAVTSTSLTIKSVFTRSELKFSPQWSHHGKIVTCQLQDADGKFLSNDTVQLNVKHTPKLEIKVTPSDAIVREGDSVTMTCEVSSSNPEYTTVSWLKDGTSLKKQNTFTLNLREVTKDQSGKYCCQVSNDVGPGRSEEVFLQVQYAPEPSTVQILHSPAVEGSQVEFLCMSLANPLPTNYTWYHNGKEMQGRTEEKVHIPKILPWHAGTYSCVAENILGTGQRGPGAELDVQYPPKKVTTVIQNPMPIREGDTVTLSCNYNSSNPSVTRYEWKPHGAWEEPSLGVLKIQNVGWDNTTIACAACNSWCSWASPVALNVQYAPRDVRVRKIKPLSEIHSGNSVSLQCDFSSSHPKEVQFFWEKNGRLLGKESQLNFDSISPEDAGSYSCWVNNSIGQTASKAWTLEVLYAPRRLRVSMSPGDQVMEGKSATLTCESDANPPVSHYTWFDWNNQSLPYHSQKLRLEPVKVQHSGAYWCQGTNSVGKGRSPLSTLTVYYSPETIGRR

B1: 6B3 antibody (antibody, V domains shown)
VH: EVQLQQSGPELVKPGASVKISCKASGYTFTDYNMHWVKQSHGKSLEWIGYIYPYNGGTGYKQKFKSKATLTVDNSSSTAYMELRSLTSEDSAVYYCARLYYYGRTSYWGQGTTLTVSS
VL: DIVMTQSQKFMSTSVGDRVSVTCKASQNVGTYVAWYQQKPGQSPKALIYSASYRYSGVPDRFTGSGSGTDFTLTISIVQSEDLAEYFCHQYDSYPYTFGGGTKLEIK
notes: Monoclonal antibody from a hybridoma, detected in FACS with goat anti-mouse IgG
B2: 2A9 antibody (antibody, V domains shown)
VH: EVQLEESGAELVKPGASVKMSCKAFGYTFTTYPIEWMKQNHGKSLEWIGNFHPYNDDTKYNEKFKGKAKLTVEKSSSTVYLELSRLTSDDSAVYYCARGDYYVSSWYFDVWGAGTTVTVSS
VL: DIVMTQSQKFMSTSVGDRVSVTCKASQNVGTNVAWYQQKPGQSPKALIYSASYRYSGVPDRFTGSGSGTDFTLTISNVQSEDLAEYFCQQYNSYPLTFGSGTKLEIK
notes: as for B1
B3: 9E9 antibody (antibody, V domains shown)
VH: EVQLEESGAELVRPGSSVKISCKASGYAFSIYWMNWVKQRPGQGLEWIGQIYPGDGDTNYNGKFKGKATLTADKSSSTAYMQLSSLTSEDSAVYFCARRGITPWFAYWGQGTLVTVSA
VL: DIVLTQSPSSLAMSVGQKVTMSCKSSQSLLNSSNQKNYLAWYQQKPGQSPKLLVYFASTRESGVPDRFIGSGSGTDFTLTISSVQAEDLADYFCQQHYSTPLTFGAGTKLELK
notes: as for B1
B4: 1C2 antibody (antibody, V domains shown)
VH: QVQLQQPGAELVRPGASVKLSCKASGYTFTSYWMNWVKQRPGQGLEWIGMIDPSDSETHYNQMFKDKATLTVDKSSSTAYMQLSSLTSEDSAVYYCARWGNYDYDVWAMDYWGQGTSVTVSS
VL: DVLMTQTPLSLPVSLGDQASISCRSSQNIVHLNGNTFLEWFLQKPGQSPKLLIYKVSNRFSGVPDRFSGSGSGTDFTLKISRVEAEDLGVYYCFQGSHVPYTFGGGTKLEIK
notes: Monoclonal antibody from a hybridoma (fusion with mouse myeloma cells), detected in FACS with goat anti-mouse IgG
B5: 2G1 antibody (antibody, V domains shown)
VH: EVQLQESGPGLVAPSQSLSITCTVSGFSLTSYDISWIRQPPGKGLEWLGVIWTGGGTNYNSAFMSRLSISKDNSKSQVFLKMNSLQTDDTAIYYCVPHYYGYAMDYWGQGTSVTVSS
VL: DIVLTQSPSSLSASLGGKVTITCKASQDINKYIAWYQHKPGKGPRLLIHYTSTLQPGIPSRFSGSGSGRDYSFSISNLEPEDIATYYCLQYDNLLTFGAGTKLELK
notes: as for B1

The test deals with T1, CD22-His tag (CD22 extracellular …). Briefly: ELISA, CD22-His tag coated at 100 ng/well, primary antibody 0.4 ug/ml. As to the method:
1C2, 9E9, 2A9, 2G1 and 6B3 antibodies were treated in each well, and then reacted at room temperature for 2 hours, and then washed 3 times with 1 X PBST. Secondary antibody ([…], 1:10,000) was treated and reacted at room temperature for 30 minutes, washed 3 times with 1 X PBST, and then treated with TMB for color development and reacted at room temperature for 5 minutes. Finally, the reaction was terminated by treatment with a stop solution of 1N H₂SO₄, and then the absorbance was measured at 450 nm.
(In general: In an ELISA, binding on a coated surface is turned into a signal by an enzyme label.)
B1 came in with an OD450 measurements of 1.79 absorbance at 450 nm.

With B2, the OD450 measurements amounted to 2.93 absorbance at 450 nm.

Regarding B3, the OD450 measurements came out at 1.76 absorbance at 450 nm.

For the molecule B4, the OD450 measurements worked out at 2.43 absorbance at 450 nm.

Consider B5, for which the OD450 measurements came to 2.54 absorbance at 450 nm.

Values taken from patent US20230212286A1 (INNOBATION BIO, published 2023).
